According to paper PMC6135609, “Poly(ADP-ribose) polymerase 1 searches DNA via a ‘monkey bar’ mechanism”:

Legend:
Conditions in all cases: protein: recombinant; (Ni-NTA; pET28a); blunt
PARP1 dZn1 = PARP1 dZn1 (human, UniProt P09874 97-1014, del2-96); assay: stopped-flow fluorescence anisotropy; k1 similar to WT; Scheme 3 dissociation; 50 mM Tris-HCl pH 7.5, 50 mM NaCl, 1 mM MgCl2, 0.1 mM EDTA, 0.01% IGEPAL, 20 C
PARP1 dZn3 = PARP1 dZn3 (human, UniProt P09874 1-215+=ALAGSGSGSGSGSGLALLLAGSGSGSGSGAAL+367-1014, internal_change); assay: as above
PARP1 dZn2 = PARP1 dZn2 (human, UniProt P09874 1-96+=ALAGSGSGSGSGSGLALLLAGSGSGSGSGAAL+207-1014, internal_change); assay: as above
PARP1 WT = PARP1 WT (human, UniProt P09874 1-1014); assay: stopped-flow fluorescence anisotropy; kinetic Kd; k1 3.1 nM-1 s-1, k-1 <10 s-1; 50 mM Tris-HCl pH 7.5, 50 mM NaCl, 1 mM MgCl2, 0.1 mM EDTA, 0.01% IGEPAL, 20 C
PARP1 dWGR = PARP1 dWGR (human, UniProt P09874 1-517+=ALAGSGSGSGSGSGLALLLAGSGSGSGSGAAL+655-1014, internal_change); assay: stopped-flow fluorescence anisotropy; k1 similar to WT; Scheme 2 dissociation, no ternary complex; 50 mM Tris-HCl pH 7.5, 50 mM NaCl, 1 mM MgCl2, 0.1 mM EDTA, 0.01% IGEPAL, 20 C
PARP1 dWGR, sequence (P09874 other isoform, or with tags, fused parts or gaps): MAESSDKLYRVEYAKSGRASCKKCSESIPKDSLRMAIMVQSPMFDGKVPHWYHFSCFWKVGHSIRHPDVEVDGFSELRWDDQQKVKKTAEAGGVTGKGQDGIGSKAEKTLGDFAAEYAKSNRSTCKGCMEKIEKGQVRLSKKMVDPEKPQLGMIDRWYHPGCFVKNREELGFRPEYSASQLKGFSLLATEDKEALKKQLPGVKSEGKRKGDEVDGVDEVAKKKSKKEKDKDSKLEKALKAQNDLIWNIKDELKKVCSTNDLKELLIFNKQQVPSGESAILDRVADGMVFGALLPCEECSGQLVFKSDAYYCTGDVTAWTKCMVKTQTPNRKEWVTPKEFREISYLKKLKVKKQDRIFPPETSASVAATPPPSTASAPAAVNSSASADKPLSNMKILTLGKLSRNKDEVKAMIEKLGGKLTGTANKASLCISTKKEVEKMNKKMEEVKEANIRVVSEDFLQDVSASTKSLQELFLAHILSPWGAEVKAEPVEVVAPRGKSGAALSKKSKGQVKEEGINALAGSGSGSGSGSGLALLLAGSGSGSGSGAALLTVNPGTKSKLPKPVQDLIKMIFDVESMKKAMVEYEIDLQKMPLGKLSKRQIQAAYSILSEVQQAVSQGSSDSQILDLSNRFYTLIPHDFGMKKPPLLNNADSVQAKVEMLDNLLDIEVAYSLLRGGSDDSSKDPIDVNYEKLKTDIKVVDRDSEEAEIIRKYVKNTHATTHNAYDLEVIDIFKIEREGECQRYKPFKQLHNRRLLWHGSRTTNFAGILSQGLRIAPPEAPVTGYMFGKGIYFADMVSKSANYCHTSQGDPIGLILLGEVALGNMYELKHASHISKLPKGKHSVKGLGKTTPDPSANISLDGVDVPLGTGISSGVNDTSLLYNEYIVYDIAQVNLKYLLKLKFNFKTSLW

PARP1 WT, sequence (P09874 whole entry): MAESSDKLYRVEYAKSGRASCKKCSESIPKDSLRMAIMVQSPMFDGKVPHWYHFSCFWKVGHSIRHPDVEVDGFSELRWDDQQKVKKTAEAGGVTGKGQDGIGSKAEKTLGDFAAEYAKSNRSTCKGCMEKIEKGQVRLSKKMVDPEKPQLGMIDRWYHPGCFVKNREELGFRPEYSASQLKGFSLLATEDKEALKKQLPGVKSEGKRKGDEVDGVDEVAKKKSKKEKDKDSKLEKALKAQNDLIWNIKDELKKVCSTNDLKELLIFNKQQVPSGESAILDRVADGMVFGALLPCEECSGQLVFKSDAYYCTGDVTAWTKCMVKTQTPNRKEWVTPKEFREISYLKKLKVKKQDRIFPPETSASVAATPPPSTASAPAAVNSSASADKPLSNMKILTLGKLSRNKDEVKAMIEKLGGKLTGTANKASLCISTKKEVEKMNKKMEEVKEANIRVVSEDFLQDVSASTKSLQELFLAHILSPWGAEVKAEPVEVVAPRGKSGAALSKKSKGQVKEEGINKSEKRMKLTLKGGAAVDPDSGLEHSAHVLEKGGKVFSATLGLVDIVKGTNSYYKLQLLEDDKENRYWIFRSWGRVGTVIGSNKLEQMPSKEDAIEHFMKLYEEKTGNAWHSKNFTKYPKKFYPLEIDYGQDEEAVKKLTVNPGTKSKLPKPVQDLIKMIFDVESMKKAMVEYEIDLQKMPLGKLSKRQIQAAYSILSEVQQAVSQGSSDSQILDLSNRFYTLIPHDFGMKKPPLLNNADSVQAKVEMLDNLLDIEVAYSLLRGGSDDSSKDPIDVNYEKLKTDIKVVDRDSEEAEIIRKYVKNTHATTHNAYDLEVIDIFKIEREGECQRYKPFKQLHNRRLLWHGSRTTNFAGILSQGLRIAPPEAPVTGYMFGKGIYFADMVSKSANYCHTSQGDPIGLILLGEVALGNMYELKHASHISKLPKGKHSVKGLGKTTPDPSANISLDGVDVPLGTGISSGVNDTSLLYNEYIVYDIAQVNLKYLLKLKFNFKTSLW
PARP1 dZn1, sequence (P09874 97-1014, stated change not applied): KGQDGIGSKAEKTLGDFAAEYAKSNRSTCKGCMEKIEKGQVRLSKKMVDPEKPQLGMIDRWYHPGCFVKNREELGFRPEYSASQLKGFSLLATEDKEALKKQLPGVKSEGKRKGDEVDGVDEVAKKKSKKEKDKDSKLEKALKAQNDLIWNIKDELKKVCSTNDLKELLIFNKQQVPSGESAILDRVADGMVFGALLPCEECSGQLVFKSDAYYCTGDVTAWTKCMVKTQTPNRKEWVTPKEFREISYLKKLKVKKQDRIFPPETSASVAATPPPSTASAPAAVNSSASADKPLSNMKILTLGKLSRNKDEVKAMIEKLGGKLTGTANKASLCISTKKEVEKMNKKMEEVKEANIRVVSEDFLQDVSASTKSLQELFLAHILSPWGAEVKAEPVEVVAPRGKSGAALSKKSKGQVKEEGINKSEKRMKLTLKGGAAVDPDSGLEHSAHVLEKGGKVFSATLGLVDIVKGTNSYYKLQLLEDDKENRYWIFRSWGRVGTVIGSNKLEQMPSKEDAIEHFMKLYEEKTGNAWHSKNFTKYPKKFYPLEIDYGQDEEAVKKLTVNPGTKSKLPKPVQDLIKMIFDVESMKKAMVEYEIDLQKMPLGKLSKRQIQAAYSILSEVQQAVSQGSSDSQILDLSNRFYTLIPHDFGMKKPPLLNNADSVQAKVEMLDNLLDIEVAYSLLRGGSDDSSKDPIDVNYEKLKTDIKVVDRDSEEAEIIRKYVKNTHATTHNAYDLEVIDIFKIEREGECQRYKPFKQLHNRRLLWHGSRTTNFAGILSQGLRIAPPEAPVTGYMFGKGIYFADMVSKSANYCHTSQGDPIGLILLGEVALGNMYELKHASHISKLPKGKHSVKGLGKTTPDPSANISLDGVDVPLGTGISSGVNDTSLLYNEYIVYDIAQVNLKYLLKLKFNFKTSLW
PARP1 dZn3, sequence (P09874 other isoform, or with tags, fused parts or gaps): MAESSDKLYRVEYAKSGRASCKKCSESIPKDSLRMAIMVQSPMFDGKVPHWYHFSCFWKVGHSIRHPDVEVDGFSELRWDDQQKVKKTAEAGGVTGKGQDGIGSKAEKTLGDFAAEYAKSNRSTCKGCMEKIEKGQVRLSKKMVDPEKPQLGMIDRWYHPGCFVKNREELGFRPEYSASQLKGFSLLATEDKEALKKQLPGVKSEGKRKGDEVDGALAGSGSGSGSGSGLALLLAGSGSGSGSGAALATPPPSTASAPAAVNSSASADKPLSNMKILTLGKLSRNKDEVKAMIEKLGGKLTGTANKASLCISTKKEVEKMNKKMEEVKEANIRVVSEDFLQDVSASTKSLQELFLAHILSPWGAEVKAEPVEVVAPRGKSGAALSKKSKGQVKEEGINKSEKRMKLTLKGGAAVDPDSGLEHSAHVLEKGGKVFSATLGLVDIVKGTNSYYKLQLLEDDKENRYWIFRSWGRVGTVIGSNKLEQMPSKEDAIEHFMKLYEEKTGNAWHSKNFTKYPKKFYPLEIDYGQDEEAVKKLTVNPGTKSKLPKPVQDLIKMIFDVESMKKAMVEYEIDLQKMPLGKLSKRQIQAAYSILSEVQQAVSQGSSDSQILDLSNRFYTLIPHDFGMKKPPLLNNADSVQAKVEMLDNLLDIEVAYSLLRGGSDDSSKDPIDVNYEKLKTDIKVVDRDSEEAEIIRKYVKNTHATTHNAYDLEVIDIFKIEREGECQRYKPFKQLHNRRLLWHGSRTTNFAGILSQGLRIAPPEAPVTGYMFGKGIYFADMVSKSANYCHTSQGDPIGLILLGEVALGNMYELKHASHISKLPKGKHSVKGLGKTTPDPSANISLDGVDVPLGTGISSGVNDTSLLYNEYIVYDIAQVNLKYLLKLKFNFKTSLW
PARP1 dZn2, sequence (P09874 other isoform, or with tags, fused parts or gaps): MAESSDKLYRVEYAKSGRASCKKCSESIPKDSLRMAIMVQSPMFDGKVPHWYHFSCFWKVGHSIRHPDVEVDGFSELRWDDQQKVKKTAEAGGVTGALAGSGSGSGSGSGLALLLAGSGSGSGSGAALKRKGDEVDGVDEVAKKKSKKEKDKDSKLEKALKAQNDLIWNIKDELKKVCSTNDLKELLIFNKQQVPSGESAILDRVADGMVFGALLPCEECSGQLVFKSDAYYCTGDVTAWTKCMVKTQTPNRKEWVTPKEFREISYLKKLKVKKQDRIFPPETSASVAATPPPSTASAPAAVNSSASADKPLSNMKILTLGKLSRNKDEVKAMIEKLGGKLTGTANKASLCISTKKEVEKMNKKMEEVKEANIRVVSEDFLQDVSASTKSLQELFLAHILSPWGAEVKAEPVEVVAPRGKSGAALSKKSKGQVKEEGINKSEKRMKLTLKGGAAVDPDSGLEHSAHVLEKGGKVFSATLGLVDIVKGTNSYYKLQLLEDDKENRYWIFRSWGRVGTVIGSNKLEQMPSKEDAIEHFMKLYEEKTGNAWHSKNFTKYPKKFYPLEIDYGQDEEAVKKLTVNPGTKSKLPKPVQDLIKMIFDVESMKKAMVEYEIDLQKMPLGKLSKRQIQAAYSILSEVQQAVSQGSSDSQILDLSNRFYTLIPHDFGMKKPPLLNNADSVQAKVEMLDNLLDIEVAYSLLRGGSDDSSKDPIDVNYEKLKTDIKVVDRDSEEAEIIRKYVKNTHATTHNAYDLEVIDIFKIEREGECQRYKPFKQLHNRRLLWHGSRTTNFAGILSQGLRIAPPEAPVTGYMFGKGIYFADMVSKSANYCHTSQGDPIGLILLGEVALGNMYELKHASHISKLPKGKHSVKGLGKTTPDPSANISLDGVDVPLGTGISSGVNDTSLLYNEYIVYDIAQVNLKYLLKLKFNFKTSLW

B1: p18mer* (labeled DSB model) (dsDNA)
DNA 1: GGGTTGCGGCCGCTTGGG
DNA 2: CCCAAGCGGCCGCAACCC
modifications: 5'-phosphate
B1: binds (PARP1 dZn1); binds (PARP1 dZn3); binds (PARP1 dZn2). The Kd (PARP1 WT) was less than 3 nM and the binding result (PARP1 dWGR) was “binds”.
